Test results: patent US20250051465A1

Assays:
[1] = target: extracellular domain of human LEPR, GPI-anchored on HEK293 cells (HEK293/hLEPR-GPI) (human); experiment: FACS, HEK293/hLEPR-GPI, 1 µM Leptin
[2] = target: full length human LEPR on cells (human) (UniProt P48357); experiment: FACS, HEK293/Stat3-luc/hLEPR-FL
[3] = target: extracellular domain of human LEPR, GPI-anchored on HEK293 cells (HEK293/hLEPR-GPI) (human); experiment: FACS, HEK293/hLEPR-GPI, no added Leptin
[4] = target: extracellular domain of human LEPR, GPI-anchored on HEK293 cells (HEK293/hLEPR-GPI) (human); experiment: FACS, HEK293/hLEPR-GPI
[5] = target: extracellular domain of human LEPR, GPI-anchored on HEK293 cells (HEK293/hLEPR-GPI) (human); experiment: FACS, HEK293/hLEPR-GPI, 70 nM Ab
[6] = target: Macaca fascicularis LEPR extracellular domain expressed with a C-terminal myc-myc-hexahistidine tag (mfLEPR.mmh) (Macaca fascicularis); experiment: SPR, captured mAb, 25C
Macaca fascicularis LEPR extracellular domain expressed with a C-terminal myc-myc-hexahistidine tag (mfLEPR.mmh) (Macaca fascicularis), sequence (Q9MYL0 other isoform, or with tags, fused parts or gaps): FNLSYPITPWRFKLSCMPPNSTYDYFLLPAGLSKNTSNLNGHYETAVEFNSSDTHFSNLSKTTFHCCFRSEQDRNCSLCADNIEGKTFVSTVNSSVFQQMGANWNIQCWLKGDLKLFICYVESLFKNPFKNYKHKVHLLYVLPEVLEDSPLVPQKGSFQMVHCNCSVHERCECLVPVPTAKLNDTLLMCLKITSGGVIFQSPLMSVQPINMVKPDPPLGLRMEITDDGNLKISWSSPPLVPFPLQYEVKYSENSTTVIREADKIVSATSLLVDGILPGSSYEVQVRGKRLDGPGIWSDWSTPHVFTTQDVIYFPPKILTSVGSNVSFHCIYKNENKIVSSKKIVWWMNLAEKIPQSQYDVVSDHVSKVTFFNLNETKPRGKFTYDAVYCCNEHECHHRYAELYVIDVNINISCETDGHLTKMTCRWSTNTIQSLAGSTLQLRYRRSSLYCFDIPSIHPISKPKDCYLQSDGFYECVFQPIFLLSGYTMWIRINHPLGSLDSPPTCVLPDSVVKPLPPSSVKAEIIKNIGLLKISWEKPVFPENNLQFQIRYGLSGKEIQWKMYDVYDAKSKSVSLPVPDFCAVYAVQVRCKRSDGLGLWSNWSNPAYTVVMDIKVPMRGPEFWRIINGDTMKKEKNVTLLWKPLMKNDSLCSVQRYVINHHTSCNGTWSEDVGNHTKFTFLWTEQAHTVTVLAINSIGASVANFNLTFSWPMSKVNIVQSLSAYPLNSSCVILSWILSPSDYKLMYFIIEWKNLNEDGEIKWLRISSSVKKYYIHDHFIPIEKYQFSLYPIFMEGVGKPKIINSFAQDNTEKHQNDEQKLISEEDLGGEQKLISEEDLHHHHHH

[7] = target: full length human LEPR on cells (human) (UniProt P48357); experiment: FACS, HEK293/Stat3-luc/hLEPR-FL, 70 nM Ab

full length human LEPR on cells (human), sequence (P48357 22-1165): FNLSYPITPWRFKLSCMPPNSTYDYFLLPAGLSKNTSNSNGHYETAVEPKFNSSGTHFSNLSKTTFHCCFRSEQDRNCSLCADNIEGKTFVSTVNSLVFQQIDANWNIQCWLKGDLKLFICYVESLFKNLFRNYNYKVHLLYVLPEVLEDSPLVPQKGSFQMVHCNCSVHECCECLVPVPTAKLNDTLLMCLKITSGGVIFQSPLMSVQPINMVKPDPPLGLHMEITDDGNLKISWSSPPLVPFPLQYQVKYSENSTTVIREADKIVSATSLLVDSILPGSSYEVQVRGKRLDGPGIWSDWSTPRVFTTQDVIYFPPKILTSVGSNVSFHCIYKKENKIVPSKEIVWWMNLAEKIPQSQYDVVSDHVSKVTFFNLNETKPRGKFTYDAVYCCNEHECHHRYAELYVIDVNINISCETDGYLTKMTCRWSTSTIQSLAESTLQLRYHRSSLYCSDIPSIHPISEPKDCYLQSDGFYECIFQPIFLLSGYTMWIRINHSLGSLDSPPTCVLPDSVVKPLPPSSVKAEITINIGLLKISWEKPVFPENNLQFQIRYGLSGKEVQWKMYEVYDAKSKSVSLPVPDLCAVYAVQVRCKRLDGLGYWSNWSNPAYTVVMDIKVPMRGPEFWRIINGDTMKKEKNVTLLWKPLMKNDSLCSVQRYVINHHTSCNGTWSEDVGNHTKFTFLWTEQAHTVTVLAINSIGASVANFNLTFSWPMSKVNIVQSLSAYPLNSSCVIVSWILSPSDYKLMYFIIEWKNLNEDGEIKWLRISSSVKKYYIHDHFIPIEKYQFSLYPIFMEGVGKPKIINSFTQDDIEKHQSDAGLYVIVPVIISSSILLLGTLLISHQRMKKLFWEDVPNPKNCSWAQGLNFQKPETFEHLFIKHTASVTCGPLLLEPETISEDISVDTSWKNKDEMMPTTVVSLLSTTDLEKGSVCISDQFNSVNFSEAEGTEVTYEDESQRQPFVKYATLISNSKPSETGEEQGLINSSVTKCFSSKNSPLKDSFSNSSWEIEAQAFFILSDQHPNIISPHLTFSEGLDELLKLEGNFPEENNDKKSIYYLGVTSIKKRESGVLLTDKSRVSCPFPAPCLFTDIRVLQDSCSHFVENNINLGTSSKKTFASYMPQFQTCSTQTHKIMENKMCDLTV

Alexa Fluor-647 conjugated secondary antibody (Jackson ImmunoResearch Laboratories Inc., #109-547-003)
Binding Ratio (fold over unstained) [1]: 3 | Binding Ratio (fold over unstained) [2]: 1 | Binding Ratio (fold over unstained) [3]: 3 | Binding Ratio (fold over unstained) [4]: 1

Isotype Control mAb (antibody)
Binding Ratio (fold over unstained) [5]: 2 | 100 nM mfLEP.MMH Bound (RU) [6]: 0 RU | Binding Ratio (fold over unstained) [7]: 2
